Here are results for 18 substances from patent US20040048790A1.

In the first experiment the target is HLA-A*0201 (human). The experiment is described as follows: 125I-probe peptide inhibition, purified HLA.
Conditions: not given
With p53.129 (9-mer) (peptide), the IC50 is 735 nM.

The target in the next experiment is HLA-A*0206 (human). Description: 125I-probe peptide inhibition, purified HLA.
Conditions: not given
In turn, p53.65 (10-mer) (peptide) returned an IC50 of 841 nM.

Another experiment concerns the target HLA-A*0301 (human). Description: 125I-probe peptide inhibition, purified HLA.
Conditions: not given
As to p53.240 (9-mer …) (peptide), the IC50 amounted to 550 nM.

The next experiment deals with HLA-A*6801 (human). The experiment is described as follows: 125I-probe peptide inhibition, purified HLA.
Conditions: not given
For p53.273 (8-mer) (peptide), the IC50 amounted to 571 nM.

The next experiment has as its target HLA-A*2401 (human). The experiment is described as follows: competition vs 125I-labelled probe peptide, purified HLA, gel filtration. The conditions noted are these: scale: ratio to standard peptide.
With p53 peptide, position 18, 8 amino acids, the relative binding ratio turned out to be 0.0016.
Regarding p53 peptide, position 18, 9 amino acids, the relative binding ratio is 0.001.
“p53 peptide, position 22, 11 amino acids”: the relative binding ratio was -0.0003.
The same measure, in the same setting: as for “p53 peptide, position 43, 11 amino acids”, the figure is 0.0023; as for “p53 peptide, position 102, 8 amino acids”, 0.11; as for “p53 peptide, position 102, 10 amino acids”, 0.12.
Turning to “p53 peptide, position 106, 8 amino acids”, the relative binding ratio was determined as 0.028.
The same measure, in the same setting: next, “p53 peptide, position 106, 9 amino acids”: 0.02; “p53 peptide, position 117, 10 amino acids”: 0.0001; “p53 peptide, position 125, 10 amino acids”: 5.1.
Still for that read-out and setting: as for “p53 peptide, position 204, 9 amino acids”, the figure is 0.001; as for “p53 peptide, position 337, 8 amino acids”, -0.0004.
Consider “p53 peptide, position 340, 9 amino acids”, for which the relative binding ratio was 0.0001.

The target of a further experiment is HLA-A*0301 (human). The experiment is described as follows: competition with 125I-labelled probe peptide for purified HLA-A*0301.
Conditions: not given
Consider “p53 peptide, position 311, 10 amino acids”, for which the relative binding ratio was 0.0035.
